We go through 22 molecules from patent US20180155451A1 (published 2018).

First the molecules themselves.
T1: FcγRIIb extracellular domain with C-terminal His tag (human, UniProt P31994 43-217)
T1 construct: extracellular domain; Soluble receptor expressed in FreeStyle293 cells, used as analyte in Biacore; also called FcgRIIb; 2b; not shown: His tag attached to the C terminus
T1 sequence (looked up): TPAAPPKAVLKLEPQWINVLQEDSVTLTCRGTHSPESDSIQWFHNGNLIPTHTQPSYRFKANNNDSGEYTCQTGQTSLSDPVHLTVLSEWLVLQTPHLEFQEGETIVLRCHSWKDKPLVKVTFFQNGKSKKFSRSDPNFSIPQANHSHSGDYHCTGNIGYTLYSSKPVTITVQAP

B1: GpH7-A5/GpH7-B3 variant I336_14T/GpL16-k0 (heterodimerized antibody, He Ab) (antibody, human IgG1, kappa)
heavy 1: not shown
heavy 2: not shown
light: DIVMTQSPLSLPVTPGEPASISCQASESLVHSNRNTYLHWYLQKPGQSPQLLIYKVSNRFSGVPDRFSGSGSGTDFTLKISRVEAEDVGVYYCSQNTHVPPTFGQGTKVEIERTVAAPSVFIFPPSDEQLKSGTASVVCLLNNFYPREAKVQWKVDNALQSGNSQESVTEQDSKDSTYSLSSTLTLSKADYEKHKVYACEVTHQGLSSPVTKSFNRGEC
notes: Anti-glypican-3 IgG1 heterodimerized antibody; the alteration stands only in the GpH7-B3 chain; Positions in EU numbering; also called I336T
B2: GpH7-A5/GpH7-B3 variant K334_13S/GpL16-k0 (heterodimerized antibody, He Ab) (antibody, human IgG1, kappa)
heavy 1: not shown
heavy 2: not shown
light: B1 light
notes: Anti-glypican-3 IgG1 heterodimerized antibody; the alteration stands only in the GpH7-B3 chain; Positions in EU numbering; also called K334S
B3: GpH7-A5/GpH7-B3 variant I336_19Q/GpL16-k0 (heterodimerized antibody, He Ab) (antibody, human IgG1, kappa)
heavy 1: not shown
heavy 2: not shown
light: B1 light
notes: Anti-glypican-3 IgG1 heterodimerized antibody; the alteration stands only in the GpH7-B3 chain; Positions in EU numbering; also called I336Q
B4: GpH7-A5/GpH7-B3 variant K334_19Q/GpL16-k0 (heterodimerized antibody, He Ab) (antibody, human IgG1, kappa)
heavy 1: not shown
heavy 2: not shown
light: B1 light
notes: Anti-glypican-3 IgG1 heterodimerized antibody; the alteration stands only in the GpH7-B3 chain; Positions in EU numbering; also called K334Q
B5: GpH7-A5/GpH7-B3 variant K334_10E/GpL16-k0 (heterodimerized antibody, He Ab) (antibody, human IgG1, kappa)
heavy 1: not shown
heavy 2: not shown
light: B1 light
notes: Anti-glypican-3 IgG1 heterodimerized antibody; the alteration stands only in the GpH7-B3 chain (K439E); GpH7-A5 carries D356K/H435R; Positions in EU numbering; also called K334E
B6: GpH7-A5/GpH7-B3 variant K334_15Y/GpL16-k0 (heterodimerized antibody, He Ab) (antibody, human IgG1, kappa)
heavy 1: not shown
heavy 2: not shown
light: B1 light
notes: Anti-glypican-3 IgG1 heterodimerized antibody; the alteration stands only in the GpH7-B3 chain; Positions in EU numbering; also called K334Y
B7: GpH7-A5/GpH7-B3 variant K334_14T/GpL16-k0 (heterodimerized antibody, He Ab) (antibody, human IgG1, kappa)
heavy 1: not shown
heavy 2: not shown
light: B1 light
notes: Anti-glypican-3 IgG1 heterodimerized antibody; the alteration stands only in the GpH7-B3 chain; Positions in EU numbering; also called K334T
B8: GpH7-A5/GpH7-B3 variant K334_20W/GpL16-k0 (heterodimerized antibody, He Ab) (antibody, human IgG1, kappa)
heavy 1: not shown
heavy 2: not shown
light: B1 light
notes: Anti-glypican-3 IgG1 heterodimerized antibody; the alteration stands only in the GpH7-B3 chain; Positions in EU numbering; also called K334W
B9: GpH7-A5/GpH7-B3 variant I336_15Y/GpL16-k0 (heterodimerized antibody, He Ab) (antibody, human IgG1, kappa)
heavy 1: not shown
heavy 2: not shown
light: B1 light
notes: Anti-glypican-3 IgG1 heterodimerized antibody; the alteration stands only in the GpH7-B3 chain; Positions in EU numbering; also called I336Y
B10: GpH7-A5/GpH7-B3 variant (H268D)/GpL16-k0 (antibody, human IgG1, kappa)
heavy 1: not shown
heavy 2: not shown
light: B1 light
notes: also called H268_09D; He Ab
B11: GpH7-A5/GpH7-B3 variant (A330M)/GpL16-k0 (antibody, human IgG1, kappa)
heavy 1: not shown
heavy 2: not shown
light: B1 light
notes: also called A330_06M; He Ab
B12: GpH7-A5/GpH7-B3 variant (A330P)/GpL16-k0 (antibody, human IgG1, kappa)
heavy 1: not shown
heavy 2: not shown
light: B1 light
notes: also called A330_05P; He Ab
B13: GpH7-A5/GpH7-B3 variant (K334E)/GpL16-k0 (antibody, human IgG1, kappa)
heavy 1: not shown
heavy 2: not shown
light: B1 light
notes: also called K334_10E; He Ab
B14: GpH7-A5/GpH7-B3 variant (K326I)/GpL16-k0 (antibody, human IgG1, kappa)
heavy 1: not shown
heavy 2: not shown
light: B1 light
notes: also called K326_07I; He Ab
B15: GpH7-A5/GpH7-B3 variant (K334D)/GpL16-k0 (antibody, human IgG1, kappa)
heavy 1: not shown
heavy 2: not shown
light: B1 light
notes: also called K334_09D; He Ab
B16: GpH7-A5/GpH7-B3 variant (K326T)/GpL16-k0 (antibody, human IgG1, kappa)
heavy 1: not shown
heavy 2: not shown
light: B1 light
notes: also called K326_14T; He Ab
B17: GpH7-A5/GpH7-B3 variant (K334I)/GpL16-k0 (antibody, human IgG1, kappa)
heavy 1: not shown
heavy 2: not shown
light: B1 light
notes: also called K334_07I; He Ab
B18: GpH7-A5/GpH7-B3 variant (H268E)/GpL16-k0 (antibody, human IgG1, kappa)
heavy 1: not shown
heavy 2: not shown
light: B1 light
notes: also called H268_10E; He Ab
B19: GpH7-A5/GpH7-B3 variant (H268A)/GpL16-k0 (antibody, human IgG1, kappa)
heavy 1: not shown
heavy 2: not shown
light: B1 light
notes: also called H268_02A; He Ab
B20: GpH7-A5/GpH7-B3 variant (S298A)/GpL16-k0 (antibody, human IgG1, kappa)
heavy 1: not shown
heavy 2: not shown
light: B1 light
notes: also called S298_02A; GpH7-A5/GpH7-B3-15-02A/GpL16-k0
B21: GpH7-A5/GpH7-B3 variant (K326D)/GpL16-k0 (antibody, human IgG1, kappa)
heavy 1: not shown
heavy 2: not shown
light: B1 light
notes: also called K326_09D; He Ab
B22: GpH7-A5/GpH7-B3 variant (A330F)/GpL16-k0 (antibody, human IgG1, kappa)
heavy 1: not shown
heavy 2: not shown
light: B1 light
notes: also called A330_04F; He Ab

In one experiment the target is T2, FcγRIIIa extracellular domain with C-terminal His tag (human, UniProt P08637 17-208).
T2 construct: extracellular domain; Soluble receptor expressed in FreeStyle293 cells, used as analyte in Biacore; also called FcgRIIIa; 3a; not shown: His tag attached to the C terminus
T2 sequence (P08637 17-208): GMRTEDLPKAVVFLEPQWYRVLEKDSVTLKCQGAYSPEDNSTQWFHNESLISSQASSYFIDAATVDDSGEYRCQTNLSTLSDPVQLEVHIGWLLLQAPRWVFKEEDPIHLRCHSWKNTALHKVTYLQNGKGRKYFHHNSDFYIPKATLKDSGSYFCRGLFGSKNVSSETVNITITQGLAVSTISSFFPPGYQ
The experiment in a line: SPR (Biacore); ratio of He/Con_3a (FcγRIIIa) to He/Con_2b (FcγRIIb). The method, boiled down:
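Measurements were made at 25 °C with HBS-EP+ as running buffer. Each antibody sat on a chip bearing its antigen peptide, amine-coupled or streptavidin-bound, while FcγR was passed over; 10 mM glycine-HCl, pH 1.5 removed captured antibody.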
Background: Surface plasmon resonance follows binding to a sensor surface in real time, without labels.
For the molecule B1, the “IIIa/IIb (He_3a/2b)” value was found to be 1.21 ratio.

In the case of B2, the “IIIa/IIb (He_3a/2b)” value came out at 1.31 ratio.

As to B3, the “IIIa/IIb (He_3a/2b)” value stood at 1.59 ratio. The same measure, in the same setting: for B4 the value was 1.25 ratio.

Regarding B5, the “IIIa/IIb (He_3a/2b)” value amounted to 1.58 ratio. Regarding B6, the “IIIa/IIb (He_3a/2b)” value came to 1.29 ratio. On the same count and under the same terms, for B7 the value was 1.23 ratio. As for B8, the “IIIa/IIb (He_3a/2b)” value turned out to be 1.23 ratio. The same measure, in the same setting: as for B9, the figure is 1.28 ratio.

The target in another experiment is T3, FcgRIIIa F (human, UniProt P08637 17-208).
T3 construct: extracellular domain; also called FcγRIIIa F; 3aF; not shown: His tag attached to the C terminus
T3 sequence (P08637 17-208): as above
The experiment is described as follows: SPR (Biacore); binding of the heterodimerized antibody relative to GpH7-A5/GpH7-B3/GpL16-k0 = 100.
B10 had a He/Con_3aF of 195. Same read-out and setting: as for B11, the figure is 139; as for B12, 152.

B13 came in with a He/Con_3aF of 186. The same measure, in the same setting: as for B14, the figure is 153; as for B15, 164. Still for that read-out and setting: as for B16, the figure is 140; as for B17, 156.

In turn, B18 registered a He/Con_3aF of 184. Molecule B19 displayed a He/Con_3aF of 121.

In the case of B20, the He/Con_3aF amounted to 151. Same read-out and setting: for B21 the value was 148; for B22, 144.

In a further experiment the target is T1, FcγRIIb extracellular domain with …. The experiment is described as follows: SPR (Biacore), antibody captured via antigen peptide, FcγR as analyte; binding amount relative to control heterodimerized antibody. The protocol:
(§1) The heterodimerized antibodies He Abs in which one of the H chains was introduced with an alteration were assayed for their binding activities to each activating FcγR and inhibitory FcγR according to the method described in Example 4. […] The activating FcγRs in FIGS. 26, 27, 28, and 29 are FcγRIa, FcγRIIa (R), FcγRIIa (H), and FcγRIIIa, respectively.
(§2) Analysis of interaction between objective antibody and the FcγR was carried out using Biacore T100 (GE Healthcare). HBS-EP+ (GE Healthcare) was used as the running buffer, and the measurement temperature was set to 25° C. Chips produced by immobilizing the antigen peptide by the amine coupling method to a Series S Sencor Chip CM5 (GE Healthcare), or alternatively, chips produced by allowing preliminarily biotinylated antigen peptides to interact with and immobilize onto a Series S Sensor Chip SA (certified) (GE Healthcare) were used. Antibodies of interest were captured onto an antigen peptide-immobilized chip, and allowed to interact to each FcγR diluted with running buffer. To regenerate and repeatedly use the chip, the antibodies captured on the chip were washed off by reacting 10 mM glycine-HCl, pH 1.5.
Take B1: the “He/Con_2b (IIb binding)” value was 89.5 relative binding, GpH7-A5/GpH7-B3/GpL16-k0 = 100. Same read-out and setting: as for B2, the figure is 111 relative binding, GpH7-A5/GpH7-B3/GpL16-k0 = 100; as for B3, 58.2 relative binding, GpH7-A5/GpH7-B3/GpL16-k0 = 100; as for B4, 109 relative binding, GpH7-A5/GpH7-B3/GpL16-k0 = 100. In the case of B5, the “He/Con_2b (IIb binding)” value was 114 relative binding, GpH7-A5/GpH7-B3/GpL16-k0 = 100. Still for that read-out and setting: as for B6, the figure is 109 relative binding, GpH7-A5/GpH7-B3/GpL16-k0 = 100; as for B7, 115 relative binding, GpH7-A5/GpH7-B3/GpL16-k0 = 100.

Regarding B8, the “He/Con_2b (IIb binding)” value was 104 relative binding, GpH7-A5/GpH7-B3/GpL16-k0 = 100.

Take B9: the “He/Con_2b (IIb binding)” value was 68.2 relative binding, GpH7-A5/GpH7-B3/GpL16-k0 = 100.

Another experiment addresses T2, FcγRIIIa extracellular domain with …. The experiment is described as above. The protocol: as §1, §2
Turning to B1, the “He/Con_3a (IIIa binding)” value is 108 relative binding, GpH7-A5/GpH7-B3/GpL16-k0 = 100. On the same count and under the same terms, as for B2, the figure is 145 relative binding, GpH7-A5/GpH7-B3/GpL16-k0 = 100; as for B3, 92.5 relative binding, GpH7-A5/GpH7-B3/GpL16-k0 = 100. As for B4, the “He/Con_3a (IIIa binding)” value is 136 relative binding, GpH7-A5/GpH7-B3/GpL16-k0 = 100. Still for that read-out and setting: as for B5, the figure is 181 relative binding, GpH7-A5/GpH7-B3/GpL16-k0 = 100. On the same count and under the same terms, as for B6, the figure is 141 relative binding, GpH7-A5/GpH7-B3/GpL16-k0 = 100; as for B7, 141 relative binding, GpH7-A5/GpH7-B3/GpL16-k0 = 100; as for B8, 128 relative binding, GpH7-A5/GpH7-B3/GpL16-k0 = 100. B9: the “He/Con_3a (IIIa binding)” value is 87.3 relative binding, GpH7-A5/GpH7-B3/GpL16-k0 = 100.
